Data: patent publication US20240100162A1 (published 2024)

Key:
[1] = molecular target: T1, MAGE-B2 peptide, V2T peptide on HLA-A*02:01 (human); experiment: killing
T1 peptide: GTYDGEEHSV

[2] = molecular target: T2, MAGE-B2 peptide, S9T peptide on HLA-A*02:01 (human); experiment: killing
T2 peptide: GVYDGEEHTV

[3] = molecular target: T3, MAGE-B2 peptide, Y3F peptide on HLA-A*02:01 (human); experiment: killing
T3 peptide: GVFDGEEHSV

[4] = molecular target: T4, MAGE-B2 peptide, S9V peptide on HLA-A*02:01 (human); experiment: killing
T4 peptide: GVYDGEEHVV

[5] = molecular target: T5, MAGE-B2 peptide, S9A peptide on HLA-A*02:01 (human); experiment: killing
T5 peptide: GVYDGEEHAV

[6] = molecular target: T6, MAGE-B2 peptide, S9C peptide on HLA-A*02:01 (human); experiment: killing
T6 peptide: GVYDGEEHCV

[7] = molecular target: T7, MAGE-B2 peptide, E7H peptide on HLA-A*02:01 (human); experiment: killing
T7 peptide: GVYDGEHHSV

[8] = molecular target: T8, MAGE-B2 peptide, H8Y peptide on HLA-A*02:01 (human); experiment: killing
T8 peptide: GVYDGEEYSV

[9] = molecular target: T9, MAGE-B2 peptide, H8W peptide on HLA-A*02:01 (human); experiment: killing
T9 peptide: GVYDGEEWSV

[10] = molecular target: T10, MAGE-B2 peptide, V2I peptide on HLA-A*02:01 (human); experiment: killing
T10 peptide: GIYDGEEHSV

[11] = molecular target: T11, MAGE-B2 peptide, H8N peptide on HLA-A*02:01 (human); experiment: killing
T11 peptide: GVYDGEENSV

[12] = molecular target: T12, MAGE-B2 peptide, H8F peptide on HLA-A*02:01 (human); experiment: killing
T12 peptide: GVYDGEEFSV

[13] = molecular target: T13, MAGE-B2 peptide, D4C peptide on HLA-A*02:01 (human); experiment: killing
T13 peptide: GVYCGEEHSV

[14] = molecular target: T14, MAGE-B2 peptide, V10A peptide on HLA-A*02:01 (human); experiment: killing
T14 peptide: GVYDGEEHSA

[15] = molecular target: T15, MAGE-B2 peptide, S9W peptide on HLA-A*02:01 (human); experiment: killing
T15 peptide: GVYDGEEHWV

[16] = molecular target: T16, MAGE-B2 peptide, E7C peptide on HLA-A*02:01 (human); experiment: killing
T16 peptide: GVYDGECHSV

[17] = molecular target: T17, MAGE-B2 peptide, V2L peptide on HLA-A*02:01 (human); experiment: killing
T17 peptide: GLYDGEEHSV

[18] = molecular target: T18, MAGE-B2 peptide, S9I peptide on HLA-A*02:01 (human); experiment: killing
T18 peptide: GVYDGEEHIV

[19] = molecular target: T19, MAGE-B2 peptide, D4N peptide on HLA-A*02:01 (human); experiment: killing
T19 peptide: GVYNGEEHSV

[20] = molecular target: T20, MAGE-B2 peptide, V10I peptide on HLA-A*02:01 (human); experiment: killing
T20 peptide: GVYDGEEHSI

[21] = molecular target: T21, MAGE-B2 peptide, S9N peptide on HLA-A*02:01 (human); experiment: killing
T21 peptide: GVYDGEEHNV

[22] = molecular target: T22, MAGE-B2 peptide, E7Y peptide on HLA-A*02:01 (human); experiment: killing
T22 peptide: GVYDGEYHSV

[23] = molecular target: T23, MAGE-B2 peptide, E7M peptide on HLA-A*02:01 (human); experiment: killing
T23 peptide: GVYDGEMHSV

[24] = molecular target: T24, MAGE-B2 peptide, V2M peptide on HLA-A*02:01 (human); experiment: killing
T24 peptide: GMYDGEEHSV

[25] = molecular target: T25, MAGE-B2 peptide, S9D peptide on HLA-A*02:01 (human); experiment: killing
T25 peptide: GVYDGEEHDV

[26] = molecular target: T26, MAGE-B2 peptide, E7D peptide on HLA-A*02:01 (human); experiment: killing
T26 peptide: GVYDGEDHSV

[27] = molecular target: T27, MAGE-B2 peptide, E7P peptide on HLA-A*02:01 (human); experiment: killing
T27 peptide: GVYDGEPHSV

[28] = molecular target: T28, MAGE-B2 peptide, E7L peptide on HLA-A*02:01 (human); experiment: killing
T28 peptide: GVYDGELHSV

[29] = molecular target: T29, MAGE-B2 peptide, E7Q peptide on HLA-A*02:01 (human); experiment: killing
T29 peptide: GVYDGEQHSV

[30] = molecular target: T30, MAGE-B2 peptide, E6V peptide on HLA-A*02:01 (human); experiment: killing
T30 peptide: GVYDGVEHSV

[31] = molecular target: T31, MAGE-B2 peptide, S9Q peptide on HLA-A*02:01 (human); experiment: killing
T31 peptide: GVYDGEEHQV

[32] = molecular target: T32, MAGE-B2 peptide, S9E peptide on HLA-A*02:01 (human); experiment: killing
T32 peptide: GVYDGEEHEV

[33] = molecular target: T33, MAGE-B2 peptide, E7N peptide on HLA-A*02:01 (human); experiment: killing
T33 peptide: GVYDGENHSV

[34] = molecular target: T34, MAGE-B2 peptide, S9G peptide on HLA-A*02:01 (human); experiment: killing
T34 peptide: GVYDGEEHGV

[35] = molecular target: T35, MAGE-B2 peptide, S9P peptide on HLA-A*02:01 (human); experiment: killing
T35 peptide: GVYDGEEHPV

[36] = molecular target: T36, MAGE-B2 peptide, V10L peptide on HLA-A*02:01 (human); experiment: killing
T36 peptide: GVYDGEEHSL

[37] = molecular target: T37, MAGE-B2 peptide on HLA-A*02:01 (human); experiment: multimer staining
T37 peptide: GVYDGEEHSV

[38] = molecular target: T38, MAGE-B2 peptide, H8E peptide on HLA-A*02:01 (human); experiment: killing
T38 peptide: GVYDGEEESV

[39] = molecular target: T39, MAGE-B2 peptide, S9Y peptide on HLA-A*02:01 (human); experiment: killing
T39 peptide: GVYDGEEHYV

[40] = molecular target: T40, MAGE-B2 peptide, H8R peptide on HLA-A*02:01 (human); experiment: killing
T40 peptide: GVYDGEERSV

[41] = molecular target: T41, MAGE-B2 peptide, H8I peptide on HLA-A*02:01 (human); experiment: killing
T41 peptide: GVYDGEEISV

Measured: binding result

B1: TCR1 (TCR, V domains shown)
Valpha: KQEVTQIPAALSVPEGENLVLNCSFTDSAIYNLQWFRQDPGKGLTSLLLIQSSQREQTSGRLNASLDKSSGRSTLYIAASQPGDSATYLCAAMKTSYDKVIFGPGTSLSVIP
Vbeta: GEEVAQTPKHLVRGEGQKAKLYCAPIKGHSYVFWYQQVLKNEFKFLISFQNENVFDETGMPKERFSAKCLPNSPCSLEIQATKLEDSAVYFCASSQGQGGYGYTFGSGTRLTVV
not listed: [38] | [39] | [40] | [41]
recognises: all other assays above

B2: TCR2 (TCR, V domains shown)
Valpha: QKEVEQNSGPLSVPEGAIASLNCTYSDRGSQSFFWYRQYSGKSPELIMSIYSNGDKEDGRFTAQLNKASQYVSLLIRDSQPSDSATYLCAVNIPFSNSGGYQKVTFGTGTKLQVIP
Vbeta: NAGVTQTPKFRVLKTGQSMTLLCAQDMNHEYMYWYRQDPGMGLRLIHYSVGEGTTAKGEVPDGYNVSRLKKQNFLLGLESAAPSQTSVYFCASRHPGQYNQPQHFGDGTRLSIL
not listed: [27]
recognises: all other assays above
